The text below walks through data of patent US6566047B1, “Method for identifying neurite-growth promoting agents” (The Regents of the University of Colorado, priority 1998, dated 2003).

The subject of one test is MAT-Lu cells. As to the kind of experiment: Pseudopod morphometry (pseudopod length assay), MAT-Lu cells. Type of test: cell-based, rat. The note with it: typically 15 min exposure. The protocol: Pseudopod Morphometry. To study the effects of various agents on pseudopods on a short-term basis, we measured pseudopod lengths. Cells plated in 35-mm diameter dishes at low density (1×10^4 per dish) were incubated overnight, tie medium was changed, and the experiments were run four hours later. First, cultures were shifted to serum-free medium, which was replaced one hour later by serum-free medium with or without the various agents (thrombin, AA or HETEs). Care was taken to avoid heat and light inactivation of the eicosanoids. Culture dishes were placed on a Zeiss inverted microscope equipped with a heated stage and viewed with a 16×phase contrast objective lens. Randomly selected fields of the cultures, containing generally about 20 cells each, were recorded, digitized and stored in the computer at the onset of the experiment and at different times thereafter.
In some cases, individual cells were monitored over different periods of time immediately after introduction of the reagent, either by mixing it into the medium or by applying it locally to one end of the cell. […] Cell morphology was recorded, and the captured images were analyzed with a Power Macintosh computer using NIH Image. Cell process length was measured from the center of the nucleus to the end of the process. […]

The next test concerns cPLA2. As to the kind of experiment: PLA2 activity (14C-AA release) in MAT-Lu cells. In kind it is biochemical, rat. The settings on record: dose-dependent.
The next test concerns growth cone PLA2. The test is described as follows: PLA2 assay in growth cone particles (GCPs). The settings on record: GCPs. Type of test: biochemical, rat. The method, then: Growth Cone Particle (GCP) Isolation. GCPs were prepared as described by Pfenninger et al. (1983) and modified by Lohse et al., Dev. Brain Res., 96:38-96 (1996). Briefly, 18-day fetal brains were homogenized in approximately 8 volumes of 0.32 M sucrose containing 1 mM MgCl2, 2 mM TES buffer, pH 7.3, and 3 μM aprotinin. A low-speed supernatant (1,660 g×15 min) was loaded onto a discontinuous sucrose density gradient With steps of 0.83 M and 2.66 M sucrose containing MgCl2 and TES. The gradients were spun to equilibrium at 242,000 g for 40 min in a vertical rotor (Vti50, Beckman). The GCP fraction at the 0.32/0.83 M sucrose interface was collected and used for the experiments described below.
All assays were run in triplicate.

Experimental for cPLA2: MAT-Lu cells were plated at a density of 0.5×10^6 cells per flask (T-75) and grown as detailed above to approximately 25% confluency. On the day before the experiments, the serum level in the medium was dropped to 1%. Cells were fed with fresh 1% serum-medium 4 hrs prior to harvest. For harvesting, cells were rinsed with Ca^++,Mg^++-free HBSS, covered with 2 ml cold Ca^++-free modified Krebs buffer (220 mM sucrose, 50 mM NaCl, 5 mM KCl, 22 mM HEPES, 10 mM glucose. 1.2 mM NaH2PO4 and 1.2 mM MgCl2, pH 7.3), and placed on ice. Cells were scraped off, pelleted for 5 min at 200 rpm and re-suspended in a minimal volume of Krebs buffer. Aliquots were used to determine protein concentration (Biorad Assay) and phopholipase activity. To measure PLA2 activity 10-12 μg of cell protein was incubated with or without thrombin for 10 min on ice, ^14C-AA-labeled phospholipid substrate (7 μM. 40-60 mCi/mmol) was added, and the mixture was transferred to 37° for 20 min. The reaction was stopped by adding cold cliloroform/methanol (1:2 v/v). Lipid extraction followed by thin-layer chromatography (Negre-Aminou et al., J Neurochem 67:2599-2608 (1996)) isolated the reaction product (identified by co-migration with AA standard), which was then scraped off the plates and analyzed in a scintillation spectrometer (Beckman). In some experiments, especially those involving ^14C-AA-phosphatidylinositol as substrate, the diacylglycerol-containing band (identified by co-migration of standard) also was scraped and counted in order to measure phospholipase C (PLC) activity.

B1: SemaIV: recombinant semaphorin IV, repellent and putative tumor suppressor (protein, UniProt Q13275 19-785, looked up)
Semaphorin-3F: SFPTQDHLPATPRVRLSFKELKATGTAHFFNFLLNTTDYRILLKDEDHDRMYVGSKDYVLSLDLHDINREPLIIHWAASPQRIEECVLSGKDVNGECGNFVRLIQPWNRTHLYVCGTGAYNPMCTYVNRGRRAQATPWTQTQAVRGRGSRATDGALRPMPTAPRQDYIFYLEPERLESGKGKCPYDPKLDTASALINEELYAGVYIDFMGTDAAIFRTLGKQTAMRTDQYNSRWLNDPSFIHAELIPDSAERNDDKLYFFFRERSAEAPQSPAVYARIGRICLNDDGGHCCLVNKWSTFLKARLVCSVPGEDGIETHFDELQDVFVQQTQDVRNPVIYAVFTSSGSVFRGSAVCVYSMADIRMVFNGPFAHKEGPNYQWMPFSGKMPYPRPGTCPGGTFTPSMKSTKDYPDEVINFMRSHPLMYQAVYPLQRRPLVVRTGAPYRLTTIAVDQVDAADGRYEVLFLGTDRGTVQKVIVLPKDDQELEELMLEEVEVFKDPAPVKTMTISSKRQQLYVASAVGVTHLSLHRCQAYGAACADCCLARDPYCAWDGQACSRYTASSKRRSRRQDVRHGNPIRQCRGFNSNANKNAVESVQYGVAGSAAFLECQPRSPQATVKWLFQRDPGDRRREIRAEDRFLRTEQGLLLRALQLSDRGLYSCTATENNFKHVVTRVQLHVLGRDAVHAALFPPLSMSAPPPPGAGPPTPPYQELAQLLAQPEVGLIHQYCQGYWRHVPPSPREAPGAPRSPEPQDQKKPRNRRHHPPDT
On to B1, for which, in the test on MAT-Lu cells, the “effect of agent alone on pseudopod length” value is listed as “causes pseudopod retraction in MAT-Lu cells”. Also, the “increase of cPLA2-PE activity” value in the test with cPLA2 is reported as “several fold”. Also, in the test on growth cone PLA2, the “activation of growth cone cPLA2/PLA2” value was “dose-dependent activation of growth cone cPLA2”.

B2: BDNF: brain-derived neurotrophic factor (protein, UniProt P23560 19-247, looked up)
Neurotrophic factor BDNF …: APMKEANIRGQGGLAYPGVRTHGTLESVNGPKAGSRGLTSLADTFEHVIEELLDEDQKVRPNEENNKDADLYTSRVMLSSQVPLEPPLLFLLEEYKNYLDAANMSMRVRRHSDPARRGELSVCDSISEWVTAADKKTAVDMSGGTVTVLEKVPVSKGQLKQYFYETKCNPMGYTKEGCRGIDKRHWNSQCRTTQSYVRALTMDSKKRIGWRFIRIDTSCVCTLTIKRGR
In the case of B2, the “activation of growth cone cPLA2/PLA2” value in the test on growth cone PLA2 is given as “did not significantly stimulate PLA2 activity”. Besides, in the test on growth cone PLA2 (Table 3c, substrate PI, BDNF 100, IGF-1 0.75, insulin 1, thrombin 200 nM, control 159 ± 6.2), the “net activity (pmol/min/mg protein)” value came out at 164 ± 10.6 pmol/min/mg protein.
